Target: the molecule itself
Assay: SEC; HiLoad 16/600 Superdex 200-pg column, 25 mM Tris (pH 8.0), 200 mM NaCl; peak checked by reducing SDS-PAGE

B1: DpK2 (gp02), capsule depolymerase / tailspike protein of Klebsiella phage RAD2 (enzyme, UniProt P0DTN8 1-907, looked up)
chain: MALYREGKAAMAADGTVTGTGTKWQSSLSLIRPGATIMFLSSPIQMAVVNKVVSDTEIKAITTSGAVVASTDYAILLSDSLTVDGLAQDVAETLRHYQSQETVIADAVEFFKSFDFDSLQNLANQIKADSESAESSAAAAAASESKAKTSEDNAKSSENAAKNSEVAAETTRDQIQQIIDNAGDQSTLVVLAQPDGFDSIGRVSSFAALRNLKPKKSGQHVLLTSYYDGWAAENKMPTGGGEFISSIGTATDDGGYIAAGPGYYWTRVVNNNSFTAEDFGCKTTATPPPNFNVLPAELFDNTAMMQAAFNLAISKSFKLNLSTGTYYFESSDTLRITGPIHIEGRPGTVFYHNPSNKANPKTDAFMNISGCSAGRISSINCFSNSYLGKGINFDRSVGDNRKLVLEHVYVDTFRWGFYVGEPECINQIEFHSCRAQSNYFQGIFIESFKEGQEYGHSAPVHFFNTICNGNGPTSFALGATYKTTKNEYIKVMDSVNDVGCQAYFQGLSNVQYIGGQLSGHGSPRNTSLATITQCNSFIIYGTDLEDINGFTTDGTAITADNIDAIESNYLKDISGAAIVVSSCPGFKIDSPHIFKIKTLSTIKLMNNTYNYEIGGFTPDEALKYNVWDANGLATNRISGVIHPRLVNSRLGINSVAFDNMSNKLDVSSLIHNETSQIVGLTPSTGSNVPHTRKMWSNGAMYSSTDLNNGFRLNYLSNHNEPLTPMHLYNEFSVSEFGGSVTESNALDEIKYIFIQTTYANSGDGRFIIQALDASGSVLSSNWYSPQSFNSTFPISGFVRFDVPTGAKKIRYGFVNSANYTGSLRSHFMSGFAYNKRFFLKIYAVYNDLGRYGQFEPPYSVAIDRFRVGDNTTQMPSIPASSATDVAGVNEVINSLLASLKANGFMSS
notes: DpK2, product of gp02 of Klebsiella phage RAD2 (genome GenBank MW655991); 98 kDa; the open reading frame was cloned between NcoI and XhoI of pPROEX htb; residues 191 to 906 are modelled in the cryo-EM structure; Homotrimer; The forward primer ([residues removed]) reads M-G-A-L-Y-R-E-G-K, so the NcoI site may add a glycine after the first methionine; no removal of the His tag is described; also …
  stoichiometry N: 3
